In patent publication US20140322130A1 (published 2014):
Where no end group is shown, it is not given here.

Target: T1, 15N-labelled recombinant EGFR287-302 peptide with methionine mutated to leucine (human, also: 15N-labelled, oxidized)
T1 construct: cleaved from an SH2 fusion with CNBr; also called 15N-labelled peptide
T1 peptide: CGADSYELEEDGVRKC
Assay: NMR, 15N HSQC

binding result: binds
B1: Fab fragment of mAb806 (Fab, V domains shown)
VH: DVQLQESGPSLVKPSQSLSLTCTVTGYSITSDFAWNWIRQFPGNKLEWMGYISYSGNTRYNPSLKSRISITRDTSKNQFFLQLNSVTIEDTATYYCVTAGRGFPYWGQGTLVTVSA
VL: DILMTQSPSSMSVSLGDTVSITCHSSQDINSNIGWLQQRPGKSFKGLIYHGTNLDDEVPSRFSGSGSGADYSLTISSLESEDFADYYCVQYAQFPWTFGGGTKLEIKR
notes: papain Fab of the intact mAb; also called Fab806
